The experiment has as its target MUC1 C-terminal subunit (MUC1-C) (human) (UniProt P15941). Kind of experiment: cell-based or functional assay.

This note sets out measurements from patent US20160058827A1.

MUC1 C-terminal subunit (MUC1-C) (human), sequence (P15941 1097-1255): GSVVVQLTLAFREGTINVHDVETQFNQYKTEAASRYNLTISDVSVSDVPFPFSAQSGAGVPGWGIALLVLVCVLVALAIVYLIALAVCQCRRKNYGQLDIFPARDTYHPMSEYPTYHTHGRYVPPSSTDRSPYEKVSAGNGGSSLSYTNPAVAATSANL

Take GO-203 (peptide): the half-maximal inhibitory concentration for GO-203 (BT-474/CshRNA cell growth) was 3.9 µM.
